What was measured:
[1] = system: T. reesei cellulase composition; assay: Enhancement of microcrystalline cellulose cellulolysis by the T. reesei cellulase composition using combinations of compounds and various GH61 polypeptides; conditions: mixtures of compounds at 3 mM
[2] = system: Trichoderma reesei cellulase composition; assay: Hydrolysis of AVICEL® (microcrystalline cellulose) by the T. reesei cellulase composition; conditions: no quinone compound, cellulase 4 mg protein/g cellulose, GH61 polypeptide where present 0.4 mg/g cellulose (10% w/w of cellulase)

B1: A. fumigatus GH61B polypeptide: GH61 polypeptide having cellulolytic enhancing activity (SEQ ID NO: 30), recombinantly prepared according to WO 2010/138754 (protein, listed as Aspergillus fumigatus)
chain: MTLSKITSIAGLLASASLVAGHGFVSGIVADGKYYGGYLVNQYPYMSNPPDTIAWSTTATDLGFVDGTGYQSPDIICHRDAKNGKLTATVAAGSQIEFQWTTWPESHHGPLITYLAPCNGDCATVDKTTLKFVKIAAQGLIDGSNPPGVWADDEMIANNNTATVTIPASYAPGNYVLRHEIIALHSAGNLNGAQNYPQCFNIQITGGGSAQGSGTAGTSLYKNTDPGIKFDIYSDLSGGYPIPGPALFNA
[1]
  overall conversion of AVICEL®, comparison among GH61 polypeptides: highest overall conversion
[2]; 1 day
  Percent conversion of AVICEL®: 13.7±0.2%
[2]; 3 days
  Percent conversion of AVICEL®: 29±1%
[2]; 7 days
  Percent conversion of AVICEL®: 46±2%
